The assay deals with GFP-Rab13-2 (N. benthamiana). The assay is described as follows: co-IP.

In turn, “REP-3xFLAG (Rab escort protein 1) (natural protein)” yielded a level of binding (α-FLAG/α-GFP) with RFP-Pc12 expressed of 1.3.

Source of the values: publication doi:10.1101/2023.12.15.571945.
